Reference: the DeepSol protein solubility set

Assay: soluble on expression in E. coli; label from the status in PepcDB or PDB records

Sequence | soluble on expression in E. coli
MLLQVHRLLFEKFYPWAGRDRLELVPHLSVWKGPKGAPRRTFFESPAMIERAVDYALSLASKKQGFMQKPGEVMGLLCFAHPFLDGNGRSILLFYMELSYRAGFAIDWASTRKDDYLQALDDEIHNPGKGHL | soluble
LAMVDNLQGDSGRGYYLEMLIGTPPQKLQILVDTGSSNFAVAGTPHSYIDTYFDTERSSTYRSKGFDVTVKYTQGSWTGFVGEDLVTIPKGFNTSFLVNIATIFESENFFLPGIKWNGILGLAYATLAKPSSSLETFFDSLVTQANIPNVFSMQMCGAGLPVAGSGTNGGSLVLGGIEPSLYKGDIWYTPIKEEWYYQIEILKLEIGGQSLNLDCREYNADKAIVDSGTTLLRLPQKVFDAVVEAVARASLIPEFSDGFWTGSQLACWTNSETPWSYFPKISIYLRDENSSRSFRITILPQLYIQPMMGAGLNYECYRFGISPSTNALVIGATVMEGFYVIFDRAQKRVGFAASPCAEIAGAAVSEISGPFSTEDVASNCVPA | soluble
MNHKVHHHHHHIDGRHHHHHHHIDGRHMQVSVETTQGLGRRVTITIAADSIETAVKSELVNVAKKVRIDGFRKGKVPMNIVAQRYGASVRQDVLGDLMSRNFIDAIIKEKINPAGAPTYVPGEYKLGEDFTYSVEFEVYPEVELQGLEAIEVEKPIVEVTDADVDGMLDTLRKQQATWKEKDGAVEAEDRVTIDFTGSVDGEEFEGGKASDFVLAMGQGRMIPGFEDGIKGHKAGEEFTIDVTFPEEYHAENLKGKAAKFAINLKKVEERELPELTAEFIKRFGVEDGSVEGLRAEVRKNMERELKSAIRNRVKSQAIEGLVKANDIDVPAALIDSEIDVLRRQAAQRFGGNEKQALELPRELFEEQAKRRVVVGLLLGEVIRTNELKADEERVKGLIEEMASAYEDPKEVIEFYSKNKELMDNMRNVALEEQAVEAVLAKAKVTEKETTFNELMNQQA | soluble
MASNQQDVVKELNQQVANWTVAYTKLHNFHWYVKGPNFFSLHVKFEELYNEASQYVDELAERILAVGGNPVGTLTECLEQSIVKEAAKGYSAEQMVEELSQDFTNISKQLENAIEIAGNAGDDVSEDMFIGMQTSVDKHNWMFKSYLSLEHHHHHH | soluble
MKLTIIRLEKFSDQDRIDLQKIWPEYSPSSLQVDDNHRIYAARFNERLLAAVRVTLSGTEGALDSLRVREVTRRRGVGQYLLEEVLRNNPGVSCWWMADAGVEDRGVMTAFMQALGFTTQQGGWEKCG | soluble
MLYPDTGRRSLVQYLSGSTGEPDGRTENRRMFMDTIGEAVLRSCQPYVRTVFNSVVVLNIMRTTHIVSMDVAHLANISASGQMFNYSLSFLGMKHVILMLWRCW | not soluble
LQEPMYVYSHDGLLIAIFGEIRRYPVQIKEVPEQLKQAFLATEDARFYEHSGIDYKGIARAIWLLATTNEKRVPGGSTITQQVARQFFLNSEYSYKRKLAEILLARKIESQLKKDEILELYLNKSFFGNRAYGIAAAAEFYYGKKLNELNLDEMASLAGIPKFPSS | not soluble
MGSDKIHHHHHHMSTQTSIEWTEMTWNPIVGCTKVSPGCKHCYAENMAHRLQAMGTPGYENGFKLSLRPEKLREPLQRKKPTIYFVNSMSDLFHEKVPDHYIDQVFEVIREATQHTFQILTKRAERLADYFSKRTPPTNAWLGVSVEDKAYGVPRIDCLRRVNATIRFLSAEPLLEDLGEIDLTDIHWVIVGGESGNKARPMQQEWVDNIHRQCDVSGSAFFFKQWGGWGADGVKRSKKANGRLLNGQTWDEIPLLNLA | not soluble
MSLNFDWIKTRSDFDDDKPAVIDHAKQTSWTYQQLNARADNMAHYLTSQGVKKGDVIGIFAPNDIAILDLLFACFKTGAVFLPLNWRLNPKEIAAIVEDAQLKLLFYAEKHLSSLTDIDQNLLHMDIDVAQYDEIVNPDYHQPFQATPVEPQDLAALIYTSGTTGSPKGVMFSYESFVHNGANLELTYKFNSNYITIVSTPMFHVLGFNDTVLPVLMSGGTLILQRYFNGEELNDMIAQYHPTFIIMIPTMYYSTLRASNFNPENFRAMDYIIQGGSQPLPSIQAAFKQYGINIINGYGLTEAPLVLVNTPENSKRKPMSIGKAVMFVDARILDDNGEEVPTGEIGELAIKAKNVTPGYWNKPAETAKAFHGRYLLTGDLAKMDDDGDIFIIDRKKELIITGGENVLPSEVENALAEHPLVDRCVVVGYDHPKYGESIAAAIILREDEPHYAEILDQHMRSRLAGYKVPRMYVPVTHMPLNSTQKPDKLAIRQMMNDKVSQTLEGHHHHHH | soluble
MTNMRQVLKTDRLVLEPQSMARFDQWFAMERQRDEAGHRDLTEDQAWLRLCARQGMWDAYACGFYYLLDPVSGEMRGEAGFQFRRRGFGPGFDNHPEAAWAVASAHQGRGLAAEAMQALLAHHDRSSGRQRVVALIARSNLPSLRLAERLGFRGYSDVAFDGAAHLLLERAG | soluble
MTAETNYFWLNCGYNRWNHNEPLVGQTALFESGAHFNPSQGFRAFKKAKVGDQVIFYQVQTDTGLLGCGEIISVETGAQNKIRVQFRFNEQLKPLTADYLKRSEALEFRMSNMKETLFNQITAEEFDLISGLGKGEIKIPRYFFLAETEEFEPGNQYTIYTHTYNGIKRNGYHFYTQLEEGDNIIFYNRTKNQSVVGIGEVSKHIHEKPPIPGRTNSTVIEVSYEKDITPITLSTLNKHPKLKNLYFLQENAKQAIASMSQAQYDAIIEMSDNNGLKSPFEMVKKPDMLESEKEEALKPFILLVVDRKEEGLKAANDLLQKANANPVITTGHPDFSEDMLYGKYLPNETGALYYREGFITQLMPKKDKSYLVIDNFNRIDTDIFQTYINVLEGYEVTLPRYNKDGNMIKWSRQKDSFYYFNPNWHIVGITYDSLEEIKEKYSEQFLKYTRIVKVKHD | not soluble
MGSDKIHHHHHHMMRNIAICSNEVENLILGQDSVKTIDMNGILVRCGLLRTENIYFDRNAVSNRFKVLVKKKAFSCNYRDKSIIFRITKQAPENTFYVVGSDFVGEVIATGSEVTELKVGDRVIANNAYPESDALEAFPGIPSNHASKEYQVFHQAKLIKIPLEMSDEIAAAFSIGGQTSYSIVRKFNPTKGSNILVTAAKSNTSLFVINALKKYDVNIYATSTSRLFEEELRAMGVKKVILVESKPNSLLENQSIQNIVAETGGFDCVFDPFFDLYLGQSVELMKIGAKYITCGLYDQYFELINQSFTPFSLNTNHIMGSVMTKNLQIIGNCLGLTEDLKNAIQDYALGHLNVVIDSVFTGKDIEGFFERTYNAKDRFGKVVYKYE | not soluble
MAHHHHHHMSAGSDARIYRCTFIKKEAVKKVIYRKYYRHKKIDTKIRKLRVSNEIKFTKKLASLNIDVPYIYFVDAKEKSLYFEYVKGCTINFILKNLKEYEPKIPICVGMVLAKIHNGNIIHGDYTTSNLILRNSFIQQNNLLDLKNNNSPYNFSDLENVKLCVIDFGLSFLSSSIEDKAVDLFVLLKTIKSFHSEFPSLEEDILEGYKMKSDNVNDIFTKLEIVKQRGRKRPMVG | not soluble
MIDTLKNIKVKDVMTKNVITAKRHEGVVEAFEKMLKYKISSLPVIDDENKVIGIVTTTDIGYNLIRDKYTLETTIGDVMTKDVITIHEDASILEAIKKMDISGKKEEIINQLPVVDKNNKLVGIISDGDIIRTISKII | soluble
MKKQQFIDMQEQGTSTIPNLLLTHYKQLGLNETELILLLKIKMHLEKGSYFPTPNQLQEGMSISVEECTNRLRMFIQKGFLFIEECEDQNGIKFEKYSLQPLWGKLYEYIQLAQNQTQERKAEGEQKLEHHHHHH | soluble
SPKKAKPTGSGKEEGPAPCKQMKLEAAGGPSALNFDSPSSLFESLISPIKTETFFKEFWEQKPLLIQRDDPALATYYGSLFKLTDLKSLCSRGMYYGRDVNVCRCVNGKKKVLNKDGKAHFLQLRKDFDQKRATIQFHQPQRFKDELWRIQEKLECYFGSLVGSNVYITPAGSQGLPPHYDDVEVFILQLEGEKHWRLYHPTVPLAREYSVEAEERIGRPVHEFMLKPGDLLYFPRGTIHQADTPAGLAHSTHVTISTYQNNSWGDFLLDTISGLVFDTAKEDVELRTGIPRQLLLQVESTTVATRRLSGFLRTLADRLEGTKELLSSDMKKDFIMHRLPPYSAGDGAELSTPGGKLPRLDSVVRLQFKDHIVLTVLPDQDQSDETQEKMVYIYHSLKNSRETHMMGNEEETEFHGLRFPLSHLDALKQIWNSPAISVKDLKLTTDEEKESLVLSLWTECLIQVV | soluble
MSKFNLGIAKAGKTVNNEGAIAYSMSDKEKLVTQVLTSFFNENKFYGDNSQDILNTVRNVIKNEAAFVANLCIFARKEMHLRTISHVLVSELAKSTEGKEYVRRTLNEIIERPDDMTEVLAYYINTYGKPIPNSIKKGLADSFGKFDEYQLAKYNRKNAVKLKDILCLVHPKAKDEIQNDLWKRLLEDRLETPVTWETELSLKGNTKEVWERLIDENRLGYMAMMRNLRNIIKSGASNMDKVYEYLTDEERVLKNKQLPFRYYSAYKVLRNEGIGTSKIYDALEIAIKISTKNIDRLPGKTLIAADVSGSMNFPVSAKSDLTCAEVAVLMLSIANYICEESITMTFDDNLYACNLSTQNGIIANANSIKVNGGGTDITLPLRYLLDKRIFVDRIILLSDNEINAVYTYDTGRDKPKTCQALVERYKKWINPNVWVHAIDMQGYGTQQFKGQNVNIIAGWSERVFDFISSVEQGIDTLIGKISGYYFK | soluble
MGSDKIHHHHHHMSELNAQQVVDYLQHHPDFLIQHPELLAQLELQQQAQGATSLVHIQQRQLREHNTLLKNQIASMNKYAAQNEQVYRLFSLCHQQLCSNNDFDALASNLQDIICSNPDISDCRLVKYDTKYAQLVEHRLSNSGHYLGRINQQERDLLFSDTAQSTAIYLIGDINKPIAILAFASNNANHFEPAQDTLFVLDFVVALQSRLLELA | not soluble
MSLESENIISAADKARILAEALPYIRRFSGSVAVIKYGGNAMTEPALKEGFARDVVLLKLVGIHPVIVHGGGPQINAMLEKVGKKGEFVQGMRVTDKEAMDIVEMVLGGHVNKEIVSMINTYGGHAVGVSGRDDHFIKAKKLLIDTPEQNGVDIGQVGTVESIDTGLVKGLIERGCIPVVAPVGVGEKGEAFNINADLVAGKLAEELNAEKLLMMTNIAGVMDKTGNLLTKLTPKRIDELIADGTLYGGMLPKIASAVEAAVNGVKATHIIDGRLPNALLLEIFTDAGIGSMILGGGEDAEGHHHHHH | soluble
MGRKNSPSANKELNELIAQYETARAENRQLYLDGDQLADIADQYAAERKFNEAQEVITYGLHLHPDSTDLLVEQAYLYLDTGKIPLAKKVVESITDEYDTDVKMLKAELMLNEGQLENARNVLDTIEDADELETIINIVYLYMDMGYPEAAKEWLDKGAPRHGKKEDFMAVMADYLTGTNQLEAASTFYNQLIDIDPYNASYWVGLAKCRFAAEDCEKAIEACDFALAADDKCGEAYAYRGHSYFYLNNSDAAIEDYKKAIKYKALPPEMGYMFLGLTYSNKEAWKEADDYYQRVIDRFIEEGLGNSPLLIDTYTNKAVAASRLGKYEEAHQLCKKAIAIQPDDPAIYLAEGKLYIQENQKKKAVKSFDKALTMEPSAEMWYMVASAYSDAEYLYQAKLCFQEAYRIDPNYADIAEKLSVLSLMHNEIDDFFKYNNESEHPISEDIILELLSRPNQTEEGEQMLREVWERMKKEKGNN | not soluble
MAHHHHHHMKPKIPFIIEIFSSFGDNYSTNYIEKEMNLDIMNVVKNYDLDTLVEENKEANGTPHVTVDDAVDQIMDRFYDCSVFHKIILLDVSILFERVE | not soluble
SLSPAMSFLKSFPPPGSADGLRLQQPDTEAVLNGKGLGTGTLYIAESRLSWLDGSGLGFSLEYPTISLHAVSRDPNAYPQEHLYVMVNAKLGEESKEPLSDEDEEDNDDVEPISEFRFVPSDKSALEAMFTAMCECQALHPDPEDEDSDDYDGEEYDVEAHEQGQGDIPTFYTYEEGLSHLTAEGQATLERLEGMLSQSVSSQYNMAGVRTEDSVRNYEDGMEVETTPTVAGQFEDADVDH | soluble
